Data published in the DeepSol protein solubility set.

test: soluble on expression in E. coli; label from the status in PepcDB or PDB records

**Q.** Which “soluble on expression in E. coli” value does the source give for “NRLLSKYDPQKEAELRTWIEGLTGLSIGPDFQKGLKDGTILCTLMNKLQPGSVPKINRSMQNWHQLENLSNFIKAMVSYGMNPVDLFEANDLFESGNMTQVQVSLLALAGKAKTKGLQSGVDIGVKYSEKQER” here?
**A.** soluble

**Q.** With “AQKHVAIALCGKGNIGSSWLKLFAEQKEKLEQRHGMNFELVAVVDSQTYWFNEQGINPNQVATHFQDEALPNQEQSWLKKLGALEGYDEAVVIDVTASEELAEQYLDIAEHGLHLISANKVAGSAAGNYYYQVKDAFHKIGRHWLYNATVGAGLPINHTVRDLRESGDDIMALSGIFSGTLSWLFQQYDGSL” as the sequence, how does the “soluble on expression in E. coli” value read?
**A.** not soluble

**Q.** Which “soluble on expression in E. coli” value does the source give for “MAHHHHHHMEDNDWTGHHSGDGDQNEGMMLNRMEAVMDEVEKLRNLNGALTLELQLAEKKLVIRHERIETLKHGLRQECAAKQELQRTLEAERVCHQAQLQDARNDALHWRQLYDDLLNNSHTRSRKHNGRHRNEHRSSTPTLEAALTSREPSSLADSPVAMGHGIIVKPIRGGGQKELN” here?
**A.** soluble

**Q.** For “MIHVREFQASDSDVVLHLLDLKDIINSSSFSEKVFQLSESGDFLGLVAEANQSGKHQVVGCAFLRLLETISRGLHCQIEELAIDKAWLHQGVGKSLMETATSWAKERGVGDIYVDSPYASIAVKEGIDSVFVRDEVLEVAQQYEAEKEELQESLKKQYNTTISKLEKEYEAKKQQQDETIHNLQTQLEDATQYLEEQQAEENELLNIDPSSPRNHTGPYPRGRGFWGTLCFPIRKTCGPGSCLRLPSGPASVRGSTDRSN”, which “soluble on expression in E. coli” value is on record?
**A.** soluble

**Q.** For “MGSDKIHHHHHHMKKLVENLLSWCKKSMKMRRCVGKSTAPVTGQSVGQTGNAEGVLPSTATETVDEIVLPAAVETAGMVETIDEKAAFGKSGRKKPENMLDALQRFLTIRYDFRYNLLTEQTEYRGKEMPDEEYAMVAQRDLNTFCLEARTGGINCWDKDVSRLLHSRKVENYHPFLHYMSHLPQWDGVDRVTPLAVRISRKPMWVKGFHRWMLGVAAQWLGQAQDCANAVAPMLVSREQGKRKSSFCKILMPKELTPYYIDKFDLTSESGCEQKLSLFGLINMDEFDKYRAGQMPALKNLMQTTTLTFRRAHRPAFSHLPRIASFIGTSNMTDLLTDPTGSRRFLCAEVDGKIDCTPPDHAQLFAQLKAELAGGERYWFSEEEEKEIQHSNRNFYKMPAEQELFLRCFRMPQEGELSKPYTTTDLFNYLQKHYPAAMRGVTPNRLGRMMVALGIQRVHTEYGNVYRLVKLKDSSAA”, which “soluble on expression in E. coli” value is on record?
**A.** not soluble

**Q.** Which “soluble on expression in E. coli” value does the source give for “SANLCKRVVDLEKYIVKEAPPTVYYIPDFISEAEEEFLLQQVYRAPKPKWTQLSGRRLQNWGGLPNPKGMLAEKLPDWLLEYTEKISALGAFAGKTANHVLVNEYKPGEGIMPHEDGPLYHPTVTTITVGSHTLLDFYRPVCQAEPDAPQTEESRYMLSLLVQRKSLLILQDDMYKCYLHGIRGVCEDVLSEHVVNISSTGAQVGDTLPRSTRVSLTIRHVPKIIRANLFLGKK” here?
**A.** soluble

**Q.** With “MAKFTVGQDPVKGLTELKAYMEEQISKIKKATSEQEIDQLLVEVLNEYDDKMGSLSKIYKGGNEQVEQLKIDVRKLYEPLRDQFSYNHPQTLVGEFQTKLEEQHKRAEEEKRKLEKQREEQLKLEKQLEEEKQKLAKQSEVEEKPKLENQQEENITQALQKVDGIIQELTLKIDRVDQHQYKKAHDTANTLLQSLIAARDEYERDLRANEFSQELAGRKFKLACQDAVKIAKPVLEKDLGWGDYLKNLLKCLGNAVITVFTFGYQQGFFAYARPDSAKAVEKAEEDLGLRQAASSPK” as the sequence, how does the “soluble on expression in E. coli” value read?
**A.** not soluble

**Q.** For “MIRVKRLDHVQICIPFGAEDEARAFYTGVLGFQEIEKPESLKGNGGLWYKVGDIQLHIGAENRDGYNSKSHPAFEVEDVEAARRYLEEHGVATQDEKPIPGVKRFSFRDPFRNRIELLEKIM”, which “soluble on expression in E. coli” value is on record?
**A.** not soluble

**Q.** Which “soluble on expression in E. coli” value does the source give for “MGSDKIHHHHHHMLIEKELSELTVGHYVVKIIQQEGCFSLTAAGHIKSKAVINHLKSKNVHRVLIDDSKTLLSSSHEKSATVDAPSIVKNKELKHAKAIFDQSKSIQKKLFHDALSGSCLDLSPVVEVTNKSIDAIFNSPDSLACMLNIREKDEYLLEHSVAVSVYITIFSRYLDLERHIIEQLSIGAFLHDIGKIKIPDKILNKPGKLTVDEFTIMKTHANHSIAIIKETPGISALSLEVAALHHEKLDGSGYPFQVDGEDISQYGRMIAICDIFDALTATRVYKEGFTHGKAFSILRELAKQGQLDASLVDHFIKCVGVFPVGSLVQLKSNKLALVQERNDKDPINPQVHSFYSVKLNQFLNKQEIDLSGSEDSIVKSVRAEEFDLDMKQIVDMLLMEG” here?
**A.** not soluble

**Q.** For “MGSDKIHHHHHHMDHQYTTLERNRYFEVLGGLNVENRGDNKVAMLSELDMTSAQALRTSVDRQTGIKPSYTAIVAKAVSIALREHPYANRMAVERLFWKRILQLHDVHMTIAVERDRPGIEQAVFAGTIRDTDKLDVAAITKELQSLAQSTEETNERWRLLKRMVETLPPALARRLISIPRWLPDQWIKHRGGSVMISSPAKYGVDMMVANWPWPIGYSFGLVKDRVIAVEGAAQVRPTMVLTMSFDRRLMGGAPAARFFRTVCEHIEHAERDMALPVNIPS”, which “soluble on expression in E. coli” value is on record?
**A.** not soluble

**Q.** Which “soluble on expression in E. coli” value does the source give for “HEIPYDNTSLPAVTFMQPSAKKNLLIFGGYDSNLEELILWFSPLRNNGYNLIIFDGPGQGNMLFKKEKSHFIMNFEKPVAAVLDYFSLDRVAALGLSWGGFFVMRAAAFEKRIEKIIALDIFYQGLDALTIAMNPVLAFIFKTLVNFKCKTWIDVLLTHAMTRDLDLNWKIKRGYQLTGTKTPYDLIQNIKKHNMKGLGPLINQEVLLLAGEKDQYVPVKRLGQIKKELSNAAEIKTHLFTQESGGEQHCQAGSNLALLAIKDFLK” here?
**A.** not soluble

**Q.** Which “soluble on expression in E. coli” value does the source give for “MFDKKLSSNDWHIQKVEMNHQVYDIETMLADSAFREHEEEQDSSLNTALPEDKTAIEAKEQEQKEKRKRWYELFKKKPKPKSSMGEFVFDQKENRIYGKGYCNRYFASYVWQGDRHIGIEDSGISRKVCKDEHLMAFELEFMENFKGNFTVTKGKDTLILDNQKMKIYLKTP” here?
**A.** not soluble

**Q.** Which “soluble on expression in E. coli” value does the source give for “SAGTQLFRFREEPGPGGNRAVLEVRVPQVLHVQYGMYVWPCAVVLAQYLWFHRRSLPGKAVLEVGAGVSLPGILAAKCGAKVILSDSSEFPHCLDICRQSCQMNNLPQVEVVGLTWGHISKDILSLPPQDIILGSDVFFEPEDFESILATVYFLMQKNPKVQFWSTYQVRSADWSLEGLLYKWDMKCVHIPLESFDADKEDIAESTLPGRHTVEMLIISFAKDSF” here?
**A.** soluble

**Q.** With “MNMLEKIQSQLEHLSKSERKVAEVILASPDNAIHSSIAALALEANVSEPTVNRFCRSMDTRGFPDFKLHLAQSLANGTPYVNRNVNEDDSVESYTGKIFESAMATLDHVRHSLDKSAINRAVDLLTQAKKIAFFGLGSSAAVAHDAMNKFFRFNVPVVYSDDIVLQRMSCMNCSDGDVVVLISHTGRTKNLVELAQLARENDAMVIALTSAGTPLAREATLAITLDVPEDTDIYMPMVSRLAQLTVIDVLATGFTLRRGAKFRDNLKRVKEALKESRFDKQLLNLSDDR” as the sequence, how does the “soluble on expression in E. coli” value read?
**A.** soluble

**Q.** Which “soluble on expression in E. coli” value does the source give for “MVAHQKADFKSKWAMVVTVNNLNDKKRADLREFSEWFIETLRLEGAFIGHYFNYEAAPVTIVETLPGNFDSCTNAYQKIHKEHPQVVLVVHILPQSQSNEYEWMKVLASRYGFVRQGLLYDNCANRFQNVETDQNSVFRNMCQWIYRSGTAIVRNEGNACGILHGKDPKPTFDKVLFNSEDIKDSVFKVLHAEEEPRGADQENMLKISGYPGMLNTFGIAQLLTPYRVNGITITGAQSAVVALENKFQVYQAVQDFNGKKLDRNHKLQVSSLVVSSPAVPLEWPSLKKSKKLVEQVGKPIRLSKVSS” here?
**A.** not soluble

**Q.** Which “soluble on expression in E. coli” value does the source give for “MGSDKIHHHHHHMKILLHMCCGPCAAYPVEQLRGQGAAVTGYWFNHNIHPYQEYMRRRDTVRAYAEKVRLDVIWRDEYRLEEFLAAVAQNPDDRCFYCYFSRLDAVAAAAAAGGFDAFSSTLLYSRYQKHDAIRDCAERAAERHGVAFHYDDYRRGWQEGIRLSKELGLYRHQYCGCIYSEKERYHPREGAK” here?
**A.** not soluble

**Q.** For “MSLKGENMRVAGLKTDKQGVIFDMDGLLVNSEELYWQANIQAAREYKLGISDDAYLDLVGASVKAMDAFYEKYFPSDEVRQAFVKRTDDLVWEWTDQGKLKLKAGVKEALEYFNDLGLTVGIASNNYKSVVDHNLWVTGCRNSFDFIVTHDEVAEKKLRSKPFPDLYLAAQERSGLGKDQLLIFEDSSMGVEAAENAGIDCVMIPDIKPASAEDRARAQLICPDFFDFLKKISEGHHHHHH”, which “soluble on expression in E. coli” value is on record?
**A.** soluble

**Q.** Which “soluble on expression in E. coli” value does the source give for “EHRKVERGILAYQPGKLLVRGDTPLFKIERLLGIDLDHIEAETLAGLIYETLKRVPEEEEQMEVEGLRIIIKKMKGPKIVLAKVLKLD” here?
**A.** not soluble

**Q.** Which “soluble on expression in E. coli” value does the source give for “MLIKIAPSILSADFSKLGEEVLRIEKAGADLVHIDVMDGHFVPNITIGPPVVKSLKKVSKLPFDVHLMIENPDMYIESFADAGADIISVHAEACRHLHRTIQKIKQLGIKAAVALNPATPLCAVEWVMEDVDMILLMTVNPGFGGQKYINGVTRKIEELERIVESRGLNIDIEVDGGIDTETVQYVTKAGANVIVSGSTIFAAEDTAKIIQELRMNSYRK” here?
**A.** not soluble

**Q.** With “MEELIKKAKEYDIDINDLIIDAISRKDPKEAINLRIELAKKYITETEDYLKKGDAVQASEKAYKTAEEIVKALAEKFNIPEYQQALKEGRWYTYWLASAVNRLAKDLGDWVLNGWNSAYILHVWGFHEAKLSTADISEHLRKVKEMLDNVINIIGKLEHHHHHH” as the sequence, how does the “soluble on expression in E. coli” value read?
**A.** soluble

**Q.** For “MGSDKIHHHHHHMRAVSIVGLGWLGLTLARHLKNLGWKVKGTKRTHEGVEQMRLIRLEAYHLELTPDINADPDDLTALLSVDALVINIPPSQYFFHLQHYVQGVKNLVNEALLNGLQHIIFISSTSVFPDVSGEFDEQSQIVPQSEMSKALLEIEQWLFELKDVDCDIIRFGGLVGEDRHPVYSLAGKDELSAGNMPINLVHVDDCARAIQLLLETPSSQRLYHLVAPQHPTRAEYYSQIAEKLALEAPHFICSEQDPRRVILANKICRELSFVYQCPDPYLMLFERK”, which “soluble on expression in E. coli” value is on record?
**A.** not soluble

**Q.** Which “soluble on expression in E. coli” value does the source give for “MYQVITMYGDNEPWWFFDDWQEDIVQEKTFDNLTDAETYYVEVWQKLSQNYTYVNTKPNYLTAFWNDGEERWCEECDEDLQQYFGLALLENHHAVTFENKAEFTTISNHFGKTKFCKRKVILEHHHHHH” here?
**A.** soluble

**Q.** Which “soluble on expression in E. coli” value does the source give for “MGSDKIHHHHHHMKGQSKKALTKKRIEEAALSLFREQGYDSTTVQEITAKAQVAKGTFFNYFPTKESIMRSLAEDRLHSVSVYMEQRHIQSLPILKKIRTYLSYLLEEYDSHPKLTVQIWRHVVEFEEMILSHWVVLLEEAKERGELSEDFPIHVWSHIIHSHVCYGLQMSHLAPTKAQLLAKVMPLLEESLSAIIQKRGNSAMKKLVVLGGGYGGMRILQRLLPNDLPSDWEITLVDRLPYHCLKTEYYALAAGTASDHHLRVSFPEDPRLSTRYGSVSSIDLASKTVLFEEGEPLTYDTLIIGLGCEDKYHGVPGAKEHTYSIQSMEATRRTYEALNNVRPEGVVTIVGAGLSGVELASELRESRPDLTIKLLDRGDIILSMFPRRLSNYVQNWFIDHGVDIINKSNVTKVEEGAVYNHDERIESDAIIWTAGIQPNVVVRNLDVEKDQQGRVVLTPHHHLPTDEDVFVVGDCASLPHAPSAQLAEGQAEQIVTVLKKRWNNESLPDEFPRIKLKGVLGSLGKKHGFGLMGERTLIGRVPRVLKSGVLWMYKYHSG” here?
**A.** not soluble
